Results on 64 variants are retold here after the RNAGym collection of RNA variant scans (doi:10.7554/elife.80360).

Sequences and labels used below:
B1: HDV Ribozyme (parent)
chain: GGCCGGCAUGGUCCCAGCCUCCUCGCUGGCGCCGGCUGGGCAACAUUCCGAGGGGACCGUCCCCUCGGUAAUGGCGAAUGGGACCCA

In the data set the parent is B1. As to the kind of experiment: self-cleavage, relative activity (ratio to wild type); higher = more cleavage; co-transcriptional.
Consider GGCCGGCAUGGUCCCAGCCUCCUCGCUGGCGCCGGCUGGGCAACAUGCCGAGGGGACCGUCCCCUCGGUAAUGGCGGAUGGGACCCA, for which the self-cleavage is 0.923.
To GGCCGGCAUGGUCCCAGCCUCCUCGCUGGCGCCGGCUGGGCAACAUCCCGAGGGGACCGUCCCCUCGGUAUUGGCGAAUGGGACCCA belongs 1.11; to GGCCGGCAUGGUCCCAGCCUCCUCGCUGGCGCCGGCUGGGCAACAUCCCGAGGGGACCGUCCCCUCGGUAAUGGCGAAUGGGAGCCA, 0.604; to GGCCGGCAUGGUCCCAGCCUCCUCGCUGGCGCCGGCUGGGCAACAUCCCGAGGGGACCGUCCCCUCGGUAAUGGCGAAUGGGAUCCA, 0.475.
Regarding GGCCGGCAUGGUCCCAGCCUCCUCGCUGGCGCCGGCUGGGCAACAUCCCGAGGGGACCGUCCCCUCGGUAAUGGAGAAUGGGACCCA, the self-cleavage worked out at 0.214.
The same measure for GGCCGGCAUGGUCCCAGCCUCCUCGCUGGCGCCGGCUGGGCAACAUGCCGAUGGGACCGUCCCCUCGGUAAUGGCGAAUGGGACCCA: 0.877; for GGCCGGCAUGGUCCCAGCCUCCUCGCUGGCGCCGGCUGGGCAACAUCCCGAGCGGACCGUCCCCUCGGUAAUGGCGAAUGGGACCCA: 0.653; for GGCCGGCAUGGUCCCAGCCUCCUCGCUGGCGCCGGCUGGGCAACAUCCCGAGAGGACCGUCCCCUCGGUAAUGGCGAAUGGGACCCA: 0.87.
The same measure for GGCCGGCAUGGUCCCAGCCUCCUCGCUGGCGCCGGCUGGGCAACAUGCCGAGGGGACCGUCCCCUCGGUAAUGGCGAAUGGGACCAA: 0.814.
In the case of GGCCGGCAUGGUCCCAGCCUCCUCGCUGGCGCCGGCUGGGCAACAUGCCGAGGGGACCGUCCUCUCGGUAAUGGCGAAUGGGACCCA, the self-cleavage was found to be 1.27.
To GGCCGGCAUGGUCCCAGCCUCCUCGCUGGCGCCGGCUGGGCAACAUGCCGAGGGGACUGUCCCCUCGGUAAUGGCGAAUGGGACCCA belongs 0.942.
The same measure for GGCCGGCAUGGUCCCAGCCUCCUCGCUGGCGCCGGCUGGGCAACAUGCCGAGGGGACCGUCCCCUCGGUAAUGGCGAAUGGGACCCU: 0.974.
The same measure for GGCCGGCAUGGUCCCAGCCUCCUCGCUGGCGCCGGCUGGGCAACAUGCCGAGGGGACCUUCCCCUCGGUAAUGGCGAAUGGGACCCA: 1.12; for GGCCGGCAUGGUCCCAGCCUCCUCGCUGGCGCCGGCUGGGCAACAUGCCGAGGGGACCAUCCCCUCGGUAAUGGCGAAUGGGACCCA: 1.14; for GGCCGGCAUGGUCCCAGCCUCCUCGCUGGCGCCGGCUGGGCAACAUCCCGAGGGGACCGUCCCCUCGGUAAGGGCGAAUGGGACCCA: 0.791.
GGCCGGCAUGGUCCCAGCCUCCUCGCUGGCGCCGGCUGGGCAACAUCCCGAGGGGACCGUCCCCUCGGUAAUGGCGAUUGGGACCCA: the self-cleavage came out at 0.277.
The same measure for GGCCGGCAUGGUCCCAGCCUCCUCGCUGGCGCCGGCUGGGCAACAUCCCGAGGGGACCGUCCCCUCGGUAAUGGCGAAUGGGGCCCA: 0.612; for GGCCGGCAUGGUCCCAGCCUCCUCGCUGGCGCCGGCUGGGCAACAUCCCGAGGGGACCGUCCCCUCGGUAAUGGCGAAUGGGACCGA: 0.675; for GGCCGGCAUGGUCCCAGCCUCCUCGCUGGCGCCGGCUGGGCAACAUUACGAGGGGACCGUCCCCUCGGUAUUGGCGAAUGGGACCCA: 0.867.
Take GGCCGGCAUGGUCCCAGCCUCCUCGCUGGCGCCGGCUGGGCAACAUUACGAGGGGACCGUCCCCUCGGUACUGGCGAAUGGGACCCA: the self-cleavage worked out at 0.688.
On to GGCCGGCAUGGUCCCAGCCUCCUCGCUGGCGCCGGCUGGGCAACAUCCCGAGGGGACCGCCCCCUCGGUAAUGGCGAAUGGGACCCA, for which the self-cleavage was 1.05.
As to GGCCGGCAUGGUCCCAGCCUCCUCGCUGGCGCCGGCUGGGCAACAUGCCGAGGGGACCGUCCCCUCGGUAAUGGCGAACGGGACCCA, the self-cleavage is 0.322.
The same measure for GGCCGGCAUGGUCCCAGCCUCCUCGCUGGCGCCGGCUGGGCAACAUGCCGAGGGGACCGUUCCCUCGGUAAUGGCGAAUGGGACCCA: 0.943; for GGCCGGCAUGGUCCCAGCCUCCUCGCUGGCGCCGGCUGGGCAACAUGCCGAGGGGACCGUGCCCUCGGUAAUGGCGAAUGGGACCCA: 0.554.
The same measure for GGCCGGCAUGGUCCCAGCCUCCUCGCUGGCGCCGGCUGGGCAACAUCCCGAGGGGACCGUCCCAUCGGUAAUGGCGAAUGGGACCCA: 0.567.
GGCCGGCAUGGUCCCAGCCUCCUCGCUGGCGCCGGCUGGGCAACAUCCCGAGGGGACCGUCCCGUCGGUAAUGGCGAAUGGGACCCA: the self-cleavage amounted to 0.511.
On to GGCCGGCAUGGUCCCAGCCUCCUCGCUGGCGCCGGCUGGGCAACAUGCCGAGGGGACCGUCCCCUCGGUAAUGGCGAAUGGCACCCA, for which the self-cleavage came out at 0.237.
The same measure for GGCCGGCAUGGUCCCAGCCUCCUCGCUGGCGCCGGCUGGGCAACAUGCCGAGGGGAUCGUCCCCUCGGUAAUGGCGAAUGGGACCCA: 0.985; for GGCCGGCAUGGUCCCAGCCUCCUCGCUGGCGCCGGCUGGGCAACAUGCCGAGGGGACCGUCCCCGCGGUAAUGGCGAAUGGGACCCA: 0.95; for GGCCGGCAUGGUCCCAGCCUCCUCGCUGGCGCCGGCUGGGCAACAUGCCGAGGGGACCGUCCCCCCGGUAAUGGCGAAUGGGACCCA: 0.923.
To GGCCGGCAUGGUCCCAGCCUCCUCGCUGGCGCCGGCUGGGCAACAUCCCGAGGGGACCGUCCCCUCGGUAAUGGCGAAUUGGACCCA belongs 0.29.
To GGCCGGCAUGGUCCCAGCCUCCUCGCUGGCGCCGGCUGGGCAACAUGCCGAGGGGACCGUCCCCUCGGUAAUGGCGAAUGCGACCCA belongs 0.128; to GGCCGGCAUGGUCCCAGCCUCCUCGCUGGCGCCGGCUGGGCAACAUCCCGAGGGGACCGUCCCCUCGUUAAUGGCGAAUGGGACCCA, 0.462.
GGCCGGCAUGGUCCCAGCCUCCUCGCUGGCGCCGGCUGGGCAACAUCCCGAGGGGACCGUCCCCUCGAUAAUGGCGAAUGGGACCCA: the self-cleavage came to 0.867.
To GGCCGGCAUGGUCCCAGCCUCCUCGCUGGCGCCGGCUGGGCAACAUCCCGAGGGGACCGUCCCCUCGGUAAUGGCGGAUGGGACCCA belongs 0.612.
The same measure for GGCCGGCAUGGUCCCAGCCUCCUCGCUGGCGCCGGCUGGGCAACAUCCCGAGGGGACCGUCCCCUAGGUAAUGGCGAAUGGGACCCA: 0.875; for GGCCGGCAUGGUCCCAGCCUCCUCGCUGGCGCCGGCUGGGCAACAUCCCGAGGGGACCGUCCCCACGGUAAUGGCGAAUGGGACCCA: 0.923.
The same measure for GGCCGGCAUGGUCCCAGCCUCCUCGCUGGCGCCGGCUGGGCAACAUUACGGGGGGACCGUCCCCUCGGUAAUGGCGAAUGGGACCCA: 0.903; for GGCCGGCAUGGUCCCAGCCUCCUCGCUGGCGCCGGCUGGGCAACAUUACGCGGGGACCGUCCCCUCGGUAAUGGCGAAUGGGACCCA: 1.03; for GGCCGGCAUGGUCCCAGCCUCCUCGCUGGCGCCGGCUGGGCAACAUCCCAAGGGGACCGUCCCCUCGGUAAUGGCGAAUGGGACCCA: 0.749.
For the variant GGCCGGCAUGGUCCCAGCCUCCUCGCUGGCGCCGGCUGGGCAACAUGCCGAGUGGACCGUCCCCUCGGUAAUGGCGAAUGGGACCCA, the self-cleavage stood at 0.973.
With GGCCGGCAUGGUCCCAGCCUCCUCGCUGGCGCCGGCUGGGCAACAUGCCGAGGGGACCGUCACCUCGGUAAUGGCGAAUGGGACCCA, the self-cleavage was 1.02.
The same measure for GGCCGGCAUGGUCCCAGCCUCCUCGCUGGCGCCGGCUGGGCAACAUGCCGAGGGGACCGUCGCCUCGGUAAUGGCGAAUGGGACCCA: 0.534; for GGCCGGCAUGGUCCCAGCCUCCUCGCUGGCGCCGGCUGGGCAACAUGCUGAGGGGACCGUCCCCUCGGUAAUGGCGAAUGGGACCCA: 1.32.
In the case of GGCCGGCAUGGUCCCAGCCUCCUCGCUGGCGCCGGCUGGGCAACAUGCGGAGGGGACCGUCCCCUCGGUAAUGGCGAAUGGGACCCA, the self-cleavage turned out to be 0.87.
The same measure for GGCCGGCAUGGUCCCAGCCUCCUCGCUGGCGCCGGCUGGGCAACAUGCCGAGGGGACCGUCCCCUCGGUAAUGGCGAAUGGGCCCCA: 0.434.
To GGCCGGCAUGGUCCCAGCCUCCUCGCUGGCGCCGGCUGGGCAACAUGCCGAGGGGACCGUCCCCUCGGUAUUGGCGAAUGGGACCCA belongs 1.18; to GGCCGGCAUGGUCCCAGCCUCCUCGCUGGCGCCGGCUGGGCAACAUGCCGAGGGGACCGUCCCCUCGGUAAUGGCGAGUGGGACCCA, 1.19.
The same measure for GGCCGGCAUGGUCCCAGCCUCCUCGCUGGCGCCGGCUGGGCAACAUGCCGAGGGGACCGUCCCCUCGGAAAUGGCGAAUGGGACCCA: 1.27; for GGCCGGCAUGGUCCCAGCCUCCUCGCUGGCGCCGGCUGGGCAACAUCCCGAGGGGACCGUCCCCUCGGUAAUGGCGAAUGGGACUCA: 0.831; for GGCCGGCAUGGUCCCAGCCUCCUCGCUGGCGCCGGCUGGGCAACAUCCCGAGGGGACCGUCCCCUCGGUAAUGGCGAAUGGGACGCA: 0.831.
Take GGCCGGCAUGGUCCCAGCCUCCUCGCUGGCGCCGGCUGGGCAACAUCCCGAGGGGACCGUCCCCUCGGUAAUGGCGAAUGCGACCCA: the self-cleavage stood at 0.151.
To GGCCGGCAUGGUCCCAGCCUCCUCGCUGGCGCCGGCUGGGCAACAUCCCGAGGGGACCGUCCCCUCGGUAAUGGCAAAUGGGACCCA belongs 0.787; to GGCCGGCAUGGUCCCAGCCUCCUCGCUGGCGCCGGCUGGGCAACAUUACGAGGGGCCCGUCCCCUCGGUAAUGGCGAAUGGGACCCA, 1.18; to GGCCGGCAUGGUCCCAGCCUCCUCGCUGGCGCCGGCUGGGCAACAUCACGAGGGGACCGUCCCCUCGGUAAUGGCGAAUGGGACCCA, 0.875.
The same measure for GGCCGGCAUGGUCCCAGCCUCCUCGCUGGCGCCGGCUGGGCAACAUCUCGAGGGGACCGUCCCCUCGGUAAUGGCGAAUGGGACCCA: 0.597; for GGCCGGCAUGGUCCCAGCCUCCUCGCUGGCGCCGGCUGGGCAACAUCCCGAGGGGACCGUCCUCUCGGUAAUGGCGAAUGGGACCCA: 1.07.
Turning to GGCCGGCAUGGUCCCAGCCUCCUCGCUGGCGCCGGCUGGGCAACAUGCCGAGGGGACCGUCCCCUCGGUAAUGGCGAAUGGGACGCA, the self-cleavage was found to be 1.18.
To GGCCGGCAUGGUCCCAGCCUCCUCGCUGGCGCCGGCUGGGCAACAUGCCGAGGGGACCGUCCCCUCGGUAAUGGCGAAUGGGACACA belongs 0.959; to GGCCGGCAUGGUCCCAGCCUCCUCGCUGGCGCCGGCUGGGCAACAUGCCUAGGGGACCGUCCCCUCGGUAAUGGCGAAUGGGACCCA, 0.831.
To GGCCGGCAUGGUCCCAGCCUCCUCGCUGGCGCCGGCUGGGCAACAUCCCGAGGGGACCGUCCCCUCGGUAAUGGCGAACGGGACCCA belongs 0.297.
To GGCCGGCAUGGUCCCAGCCUCCUCGCUGGCGCCGGCUGGGCAACAUCCCGAGGGGACCGUCCCCUCGGUAAUGGCGAAAGGGACCCA belongs 0.65; to GGCCGGCAUGGUCCCAGCCUCCUCGCUGGCGCCGGCUGGGCAACAUCCCGAGGGGACCGUCCCCUCGGUAAUGGCGAAGGGGACCCA, 0.415.
For GGCCGGCAUGGUCCCAGCCUCCUCGCUGGCGCCGGCUGGGCAACAUGCCGAGGGGACCGUCCCUUCGGUAAUGGCGAAUGGGACCCA, the self-cleavage was determined as 1.28.
